Source: publication PMC8960830

Columns and labels:
[1] = test system: S9.6 Fab WT, PDB:7TQB_1+PDB:7TQB_2; test: fluorescence polarization; conditions: FP: 25 mM Tris-HCl pH 7.5, 50 mM NaCl, 2 mM MgCl2, 21 C, ~5 nM FAM duplex, ITC same buffer at 25 C, SEC-MALS 150 mM NaCl
[2] = test system: S9.6 Fab WT, PDB:7TQB_1+PDB:7TQB_2; test: fluorescence polarization; conditions: FP: 25 mM Tris-HCl pH 7.5, 50 mM NaCl, 2 mM MgCl2, 21 C, ~5 nM FAM duplex, ITC same buffer at 25 C, SEC-MALS 150 mM NaCl; remark: listed apart in the source
[3] = test system: S9.6 Fab WT, PDB:7TQB_1+PDB:7TQB_2; test: ITC; conditions: 2 mM Mg2+, 25 C; FP: 25 mM Tris-HCl pH 7.5, 50 mM NaCl, 2 mM MgCl2, 21 C, ~5 nM FAM duplex; ITC same buffer at 25 C; SEC-MALS 150 mM NaCl
[4] = test system: S9.6 Fab WT, PDB:7TQB_1+PDB:7TQB_2; test: competition; conditions: FP: 25 mM Tris-HCl pH 7.5, 50 mM NaCl, 2 mM MgCl2, 21 C, ~5 nM FAM duplex; ITC same buffer at 25 C; SEC-MALS 150 mM NaCl
[5] = test system: S9.6 Fab HC_Y101F, PDB:7TQB_1+PDB:7TQB_2; test: fluorescence polarization; conditions: FP: 25 mM Tris-HCl pH 7.5, 50 mM NaCl, 2 mM MgCl2, 21 C, ~5 nM FAM duplex; ITC same buffer at 25 C; SEC-MALS 150 mM NaCl
[6] = test system: S9.6 Fab HC_Y54G, PDB:7TQB_1+PDB:7TQB_2; test: fluorescence polarization; conditions: FP: 25 mM Tris-HCl pH 7.5, 50 mM NaCl, 2 mM MgCl2, 21 C, ~5 nM FAM duplex; ITC same buffer at 25 C; SEC-MALS 150 mM NaCl
[7] = test system: S9.6 Fab HC_S31A, PDB:7TQB_1+PDB:7TQB_2; test: fluorescence polarization; conditions: FP: 25 mM Tris-HCl pH 7.5, 50 mM NaCl, 2 mM MgCl2, 21 C, ~5 nM FAM duplex; ITC same buffer at 25 C; SEC-MALS 150 mM NaCl
[8] = test system: S9.6 Fab HC_S31G, PDB:7TQB_1+PDB:7TQB_2; test: fluorescence polarization; conditions: FP: 25 mM Tris-HCl pH 7.5, 50 mM NaCl, 2 mM MgCl2, 21 C, ~5 nM FAM duplex; ITC same buffer at 25 C; SEC-MALS 150 mM NaCl
[9] = test system: S9.6 Fab HC_Y32A, PDB:7TQB_1+PDB:7TQB_2; test: fluorescence polarization; conditions: FP: 25 mM Tris-HCl pH 7.5, 50 mM NaCl, 2 mM MgCl2, 21 C, ~5 nM FAM duplex; ITC same buffer at 25 C; SEC-MALS 150 mM NaCl
[10] = test system: S9.6 Fab HC_Y54A, PDB:7TQB_1+PDB:7TQB_2; test: fluorescence polarization; conditions: FP: 25 mM Tris-HCl pH 7.5, 50 mM NaCl, 2 mM MgCl2, 21 C, ~5 nM FAM duplex; ITC same buffer at 25 C; SEC-MALS 150 mM NaCl
[11] = test system: S9.6 Fab HC_Y54D, PDB:7TQB_1+PDB:7TQB_2; test: fluorescence polarization; conditions: FP: 25 mM Tris-HCl pH 7.5, 50 mM NaCl, 2 mM MgCl2, 21 C, ~5 nM FAM duplex; ITC same buffer at 25 C; SEC-MALS 150 mM NaCl
[12] = test system: S9.6 Fab HC_Y54F, PDB:7TQB_1+PDB:7TQB_2; test: fluorescence polarization; conditions: FP: 25 mM Tris-HCl pH 7.5, 50 mM NaCl, 2 mM MgCl2, 21 C, ~5 nM FAM duplex; ITC same buffer at 25 C; SEC-MALS 150 mM NaCl
[13] = test system: S9.6 Fab HC_Y54H, PDB:7TQB_1+PDB:7TQB_2; test: fluorescence polarization; conditions: FP: 25 mM Tris-HCl pH 7.5, 50 mM NaCl, 2 mM MgCl2, 21 C, ~5 nM FAM duplex; ITC same buffer at 25 C; SEC-MALS 150 mM NaCl
[14] = test system: S9.6 Fab HC_Y54Q, PDB:7TQB_1+PDB:7TQB_2; test: fluorescence polarization; conditions: FP: 25 mM Tris-HCl pH 7.5, 50 mM NaCl, 2 mM MgCl2, 21 C, ~5 nM FAM duplex; ITC same buffer at 25 C; SEC-MALS 150 mM NaCl
[15] = test system: S9.6 Fab HC_Y54R, PDB:7TQB_1+PDB:7TQB_2; test: fluorescence polarization; conditions: FP: 25 mM Tris-HCl pH 7.5, 50 mM NaCl, 2 mM MgCl2, 21 C, ~5 nM FAM duplex; ITC same buffer at 25 C; SEC-MALS 150 mM NaCl
[16] = test system: S9.6 Fab HC_Y54W, PDB:7TQB_1+PDB:7TQB_2; test: fluorescence polarization; conditions: FP: 25 mM Tris-HCl pH 7.5, 50 mM NaCl, 2 mM MgCl2, 21 C, ~5 nM FAM duplex; ITC same buffer at 25 C; SEC-MALS 150 mM NaCl
[17] = test system: S9.6 Fab HC_Y54L, PDB:7TQB_1+PDB:7TQB_2; test: fluorescence polarization; conditions: FP: 25 mM Tris-HCl pH 7.5, 50 mM NaCl, 2 mM MgCl2, 21 C, ~5 nM FAM duplex; ITC same buffer at 25 C; SEC-MALS 150 mM NaCl
[18] = test system: S9.6 Fab HC_Y54M, PDB:7TQB_1+PDB:7TQB_2; test: fluorescence polarization; conditions: FP: 25 mM Tris-HCl pH 7.5, 50 mM NaCl, 2 mM MgCl2, 21 C, ~5 nM FAM duplex; ITC same buffer at 25 C; SEC-MALS 150 mM NaCl
[19] = test system: S9.6 Fab HC_Y54V, PDB:7TQB_1+PDB:7TQB_2; test: fluorescence polarization; conditions: FP: 25 mM Tris-HCl pH 7.5, 50 mM NaCl, 2 mM MgCl2, 21 C, ~5 nM FAM duplex; ITC same buffer at 25 C; SEC-MALS 150 mM NaCl

“CAGACAGACA / UGUCUGUCUG [10-bp hybrid 50% GC]” was tested, and the Kd [1] was 3110 nM.

In the case of “CAGACGGACA / UGUCCGUCUG [10-bp hybrid 60% GC]”, the Kd [1] is reported as 610 nM.

In the case of “CGGACGGACA / UGUCCGUCCG [10-bp hybrid 70% GC]”, the Kd [1] is reported as 420 nM.

“CGGACGGACG / CGUCCGUCCG [10-bp hybrid 80% GC]” gave a Kd [1] of 570 nM.

“CGGCCGGACG / CGUCCGGCCG [10-bp hybrid 90% GC]” showed a Kd [1] of 1020 nM.

“CGTGTCAGACAAG / CTTGTCUGACACG [13-bp dsDNA with 2'-OH at U7-G8-A9]” showed a Kd ([2]; text: Kd > 7 uM, weakly bound, strand 2: ribonucleotides at positions 7-9, rest DNA) of 7000 nM.

CGTGTCAGACAAG / CTUGUCUGACACG gave a Kd ([2]; table fit 20.6 +/- 5.8 uM, RNA strand: deoxy at positions 2, 4, 6, 8, 10, 12 (12 inferred, name is cut in the material)) of over 21000 nM.

CGTGTCAGACAAG / CUTGUCUGACACG was tested, and the Kd ([2]; RNA strand: deoxy at positions 3, 6, 9, 12) was 380 nM.

“CGTGTCAGACAAG / CUUGUCUGACACG [13-bp DNA-RNA hybrid]” gave a Kd [3] of 415 nM, an IC50 [4] of 450 nM and a binding signal (fold lower binding than WT) [5] of under 2. It also gave a binding signal (fold lower affinity than WT) [6] of 58, a Kd ([2]; 2 mM Mg2+) of 232 nM and a Kd [7] of 140 nM. For the same sequence, the Kd [8] was 170 nM, the Kd [9] was 25400 nM and the Kd [10] was 2650 nM. For the same sequence, the Kd [11] was 5160 nM, the Kd [12] was 400 nM and the Kd [13] was 360 nM. It also gave a Kd [14] of 730 nM, a Kd [15] of 150 nM and a Kd [16] of 760 nM. For the same sequence, the Kd ([1]; 2 mM Mg2+) was 190 nM.

“CGTGTCTGACAAG / CUUGUCAGACACG [13-bp hybrid rU7A:dA7T]” was tested, and the Kd [1] was 110 nM.

For “CGTGUCAGACAAG / CUUGUCUGACACG [13-bp hybrid, 2'-OH (uridine) at dT5]”, the Kd ([1]; DNA strand: ribo-U at position 5) was 140 nM.

Sequence “CGUGUCAGACAAG / CUUGUCUGACACG [13-bp hybrid, 2'-OH at dT3-dG4-dT5-dC6-dA7]” has a Kd ([1]; DNA strand: ribonucleotides at positions 3-7) of 100 nM.

“CUUGUCUGACACG / CGUGUCAGACAAG [13-bp dsRNA]” gave an IC50 [4] of 57000 nM, a Kd ([2]; 2 mM Mg2+) of 3790 nM and a Kd [10] of 2350 nM. The Kd [12] was 8300 nM, the Kd [13] was 4300 nM and the Kd [17] was 3990 nM. For the same sequence, the Kd [18] was 4530 nM, the Kd [14] was 1640 nM and the Kd [15] was 1910 nM. The Kd [19] was 1610 nM and the Kd [16] was 11800 nM.
